This note sets out measurements from the DeepSol protein solubility set.

This data set is described as follows: soluble on expression in E. coli; label from the status in PepcDB or PDB records.
With “MRIHILGICGTFMGGLAMLARSLGHEVTGSDANVYPPMSTLLEKQGIDLIQGYDASQLDPQPDLVIIGNAMTRGNPCVEAVLEKNIPFMSGPQWLHDFVLRDRWVLAVAGTHGKTTTAGMATWILEACGYKPGFVIGGVPGNFEVSARLGESPFFVIEADEYDCAFFDKRSKFVHYCPRTLILNNLEFDHADIFDDLKAIQKQFHHLVRIVPGQGRIIWPENDINLKQTMALGCWSEQELVGEQGHWQAKKLTTDASEWEVWLDGEKVGDVKWGLVGEHNMHNGLMAIAAARHVGVAPAEAASALGSFINARRRLELRGEANGVTVYDDFAHHPTAILATLAALRGKVGGTARIIAVLEPRSNTMKMGLCKDDLAPSLGRADEVFLLQPPHIPWQVAEVAEACVQPAHWSGDVDTLAEMVVKTAQPGDHILVMSNGGFGGIHQKLLDGLAKKAQNVTAY”, the “soluble on expression in E. coli” value was “not soluble”. Turning to “MKDLDFSKKPLIGVVHLKPLPGSPRYGGDFEEVIEWAIRDAKTYEEAGFDGIIVENFGDSPFSKTLPREVIPAFTVVAKAVKKEVSLPLGINALRNDCIVAYSIAHAVGGSFIRVNVLTGVAFTDQGIIEGCARELWNVKRIIGGDILTLADVHVKHAVHFTNFEDAVKDTVERGLADGIIVTGRRTGESISLEDLILAKRVSSIPVLVGSGVNPRNFRTLFKYADGFIVGTWVKENGKINNPVSLERAKILVRMKNSLMGVLEHHHHHH”, the “soluble on expression in E. coli” value is on record as “not soluble”.

For “MESVSCSAAAVRTGDMESQRDLSLVPERLQRREQERQLEVERRKQKRQNQEVEKENSHFFVATFARERAAVEELLERAESVERLEEAASRLQGLQKLINDSVFFLAAYDLRQGQEALARLQAALAERRRGLQPKKRFAFKTRGKDAASSTKVDAAPGIPPAVESIQDSPLPKKAEGDLGPSWVCGFSNLESQVLEKRASELHQRDVLLTELSNCTVRLYGNPNTLRLTKAHSCKLLCGPVSTSVFLEDCSDCVLAVACQQLRIHSTKDTRIFLQVTSRAIVEDCSGIQFAPYTWSYPEIDKDFESSGLDRSKNNWNDVDDFNWLARDMASPNWSILPEEERNIQWD”, the “soluble on expression in E. coli” value is “soluble”. The value for “MEKISDLIECIAYEKNLPKEMISKVIQGCLLKMAQNELDPLARYLVVEENKQLQLIQLVEVLEDGDERLVNDPSKYISLSKAKEMDPSVKIKDELSYSLSLESMKQGAINRLFKDLQYQLEKALEDSHFEAFQKRLNSVLMGQVILVDHNQNTFIEIEQQFQGVLSMRHRIKGESFKVGDSIKAVLTQVKRTKKGLLLELSRTTPKMLEALLELEVPEIKDKEIEIIHCARIPGNRAKVSFFSHNARIDPIGAAVGVKGVRINAISNELNKENIDCIEYSNVPEIYITLALAPAKILSVEIKKIPIEELNAEEKESIQERFIVNNHLQKAKVRLLDIEKSKAIGKGGVNVCLASMLTGYHIEFETIPSVKENAENESEKETPKVGVEALESLFKNLEHHHHHH” was “soluble”; that for “MSVIRKEDGAGGKYMVELLKKHVFPKIASRAGEIALEDMEDSSDFCDDFAFTTDSYVVSPPIFRGGSIGSLSVCGTSNDLAVMGAKPEFMSLALVIQDGFPLGDFRRIMDDIRDSVELVNLSIITGDTKVVESNVGIIVNTAGIGRRSEELERNLEVLRELRDYPYRWVRDKGLKEGDAIIVSGSIAEHAAVIMAERMGFEVEFKSDVYPVWLFVREALRRGGVTAMKDPTRGGIAAALNEMAEKSGVGIKIFEERIPLKDEVRGLCELLGLDPLTMANEGKVVFGVHPEMADEVLKALHKAGQKEAEIIGYATKEFAEVVLETAVGTTRVVPQPISDPIPRVC” was “not soluble”.

On to “MSLSILNSNAALRGLLDQHLADLSREEGLAPETIRDAIERGTMVLLGNPSHPSLRPILVGQPARVKVNANIGTSPMRNHPECEMQKVDAAVEAGADTIMDLSIAGDLDAIRREMLARCPLPLGTVPLYSVAQKYIECGKDPALIDPEEIFAEIEKQAQQGVDFMTVHCGLTRRGAEWAAKGDRLLGIVSRGGSILARWMLRHDRENPLLTGYDRILDIARKYNVTLSLGDGLRPGAGADAGDAAQWEEVMVLGQLAKRGLEAGVQCMIEGPGHVPMNEVEAQIVGIKKLTHGAPLYVLGPLVIDSCPGYDHIAGAIGGALAVRSGVDFLCYLTPAEHLTLPTREDVRAGVIASRIAAQAGEVALGRPHALARELGMGKARKALDWPGMERHALDAAMVDERRGEHRNEEECAMCGKFCAVKMLRDDPQGAFEGHHHHHH”, for which the “soluble on expression in E. coli” value is “soluble”. The value for “MGSDKIHHHHHHMFTSNQGAGRMNKEVGMDNPGLDVYLRDQKIGRLWLDDKRRFVFQYDSEWTHQKGAVPLSLHLPLREEIYPDDLARPFFSNLLPEAEVKRAIAQRLRISESNDFALLNSIGGECAGAVSVLPAGVAPAMKPGYRELSEEELHRIIIELPRRPLLAGVEGMRLSLAGAQNKLPVYMEDHRIFIATGNAPSSHILKPPIRDLEDTVGNEAFCMILAQRLGLQVPVVTIRRGLDRIFIIARYDRSRDTDGHIVRLHQEDFCQALGFLPEQKYENEGGPSLKQCFTLLQEKSIRPAADRMALLRWTIFNLLIGNDDAHAKNLAMIFTDRGPRLAPFYDLICTQVYPDLTEKQAMRIGGENRPSWILQKHWDRFSESTAIKPNLVLKTLKEMSAAIALAAQTLSSEFIKKYGTCTIIEEILAVIEKRAESV” was “not soluble”; that for “MIHVILLAAGYSSRFGSNKLLHIVDGTPMYRHALETAEQFRQRYCCEPVRLIFVTAYDDIGKQLREKDGFCLFGAAKAGNTAGRDLVVMNPNSGLGISHSIALGVKAAGADRFQEDDSLMFMVCDQPWLTPGDLLNLAACFKRSGKSIGCMAYGEQTGNPVLFSAVYREELLGLRGDTGGKAIVRRHPKEVCLCPVSNPRALEDMDELQ” was “not soluble”; that for “MELFKEISQEESNKDSKENDNINEEIDIEQLKDKVKDLELQLEYEIKQHNVEIAEREETIKILETRIQELEHYKNDITEKDEAIINMSEKLLILSNKYDILVKESKLQEEELKHFKNKKKYRNDKTNEYILGLRNQNDEIKKEHELLNEKYAQLVKEYAILQNSCKVLNEQLENNQKNMELLIKEKSNNLDEKTAIKILNIGSKELIHKRVHNKNVDELSNLKLELEYKDMILNKLMRKQVSEGKTIKVEYTNNENKFENEKKLGEMYQKYLDSVCDNDNLKKEINKLHNKINDMKVEEEEHLKTISILRDYINKMYKEDVNINQFDDLINNILKDNTSLNEELSKQKRKNMADIYYFTKELQIVKKDKFKIIEKFDSKKVTNIPHLYEPLNLTLSKENNKREISDDDDDNKGPKGDLNFLKKNSDINCSESNIKKPLKTNDLVHIYMQDYMNNVQNKA” was “not soluble”. In the case of “MGSDKIHHHHHHMKIILTTSMSGLGGTETATVRLGRLLKRHGHDIILASSDGPFVGEAQASGIRWQPVDFYRGGLAGYLKSTFAYARMLRREQPDIIDCQMARVVPACALAAKIVSPKTKIICHSHGLDAATYPKTAKLFDKLGAYIIGNCKHEREKLIRHGFPAGRIAYAYNTPPEFHFRKTEKECAVLGTLSRLDTVRAVHLMLDILKKMVGRNIPVRLNMAGIGEEMDNLKAQAKRLGIEDKVTFLGGVRDLTGYFKEVDILVNTPHCVGDHGAGVGNNILEAGLYDTPVVTYNMAGISEMVITGQTGYCIPFGDDEAFIEAVDTLIKHPELRSQMGKALHKHVETLCSDDEIYRTTMAAYEM”, the “soluble on expression in E. coli” value is recorded as “not soluble”. Take “GFVEPHVHPLIASIMLPNEIIAPYDWVLPHTVKKGVQDHDSYLKAVTKSVNENANKDEVYFIWGYHQLWHGELNRDILNNISKDKPIAIIHRSFHEIFLNDAAISKLGIKKSDFANNPQVYWEKGHFYEGGWFALVPMMASELLAPKKYLQGLAMMSELVEKNGITTIGEPGFPSSSFDTEYTLLKQEMDTKPPFDIFLIPNGTQLYGMKGSNENALTFMNSLPEKYNTSNIQFLPKQVKLFADGAIYSQLMQMKDGYIDGHKGEWITPLALFQQQLDFYWDRDFKIHTHANGDLGIQEVMGFVSKAQKRTPRKDHRFTLHHMGYFDDTQAQQVADLQIDASVNPYYLWALADKYAEHGLGKERGENLVRMKSLTDRGVHLSFHSDFSMAPMEPLTLAWTAVNRITSQGSKFSQAQRLDMYTAMKAITIGAARVLSQEHKIGSIKKGKTANFTILAENPFKVEPIALKDIDIITTVFRGTLSKPLH”: the “soluble on expression in E. coli” value is “not soluble”.
